Assays:
SSB = SSB (E. coli, UniProt P0AGE0 1-178); test: EMSA
RPA (RPA70-RPA32-RPA14) = RPA (RPA70-RPA32-RPA14) (UniProt P27694;P15927;P35244 1-616;1-270;1-121); test: EMSA
Sequence of RPA (RPA70-RPA32-RPA14) (P27694 whole entry, chain 1 of 3): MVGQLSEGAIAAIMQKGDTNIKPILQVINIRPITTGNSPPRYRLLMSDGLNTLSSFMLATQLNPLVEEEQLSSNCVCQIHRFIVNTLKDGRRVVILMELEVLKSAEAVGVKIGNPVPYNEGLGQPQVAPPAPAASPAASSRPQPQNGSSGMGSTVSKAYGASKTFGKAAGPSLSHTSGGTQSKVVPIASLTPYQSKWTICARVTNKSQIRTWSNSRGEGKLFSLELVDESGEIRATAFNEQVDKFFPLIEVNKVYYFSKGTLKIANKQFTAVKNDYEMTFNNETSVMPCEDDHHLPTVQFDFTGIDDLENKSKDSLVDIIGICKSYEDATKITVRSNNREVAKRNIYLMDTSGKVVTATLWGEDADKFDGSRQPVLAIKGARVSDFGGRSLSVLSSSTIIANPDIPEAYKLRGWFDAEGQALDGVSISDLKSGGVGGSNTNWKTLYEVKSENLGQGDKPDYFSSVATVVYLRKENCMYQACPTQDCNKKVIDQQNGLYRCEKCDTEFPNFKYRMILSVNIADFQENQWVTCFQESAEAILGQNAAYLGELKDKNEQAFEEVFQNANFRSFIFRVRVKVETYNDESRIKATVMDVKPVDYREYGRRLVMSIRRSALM
Sequence of RPA (RPA70-RPA32-RPA14) (P15927 whole entry, chain 2 of 3): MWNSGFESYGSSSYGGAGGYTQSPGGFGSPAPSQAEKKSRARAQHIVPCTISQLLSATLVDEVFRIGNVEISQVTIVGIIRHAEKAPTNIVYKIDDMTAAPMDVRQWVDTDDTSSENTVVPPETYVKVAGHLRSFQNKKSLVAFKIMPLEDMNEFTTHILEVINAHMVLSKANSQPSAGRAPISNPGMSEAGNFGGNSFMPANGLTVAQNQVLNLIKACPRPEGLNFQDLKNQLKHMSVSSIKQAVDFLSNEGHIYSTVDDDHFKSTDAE
Sequence of RPA (RPA70-RPA32-RPA14) (P35244 whole entry, chain 3 of 3): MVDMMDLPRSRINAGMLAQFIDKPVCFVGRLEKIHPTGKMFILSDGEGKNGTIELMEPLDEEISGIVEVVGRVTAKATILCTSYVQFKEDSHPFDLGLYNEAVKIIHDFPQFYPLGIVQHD

Sequence of SSB (P0AGE0 whole entry): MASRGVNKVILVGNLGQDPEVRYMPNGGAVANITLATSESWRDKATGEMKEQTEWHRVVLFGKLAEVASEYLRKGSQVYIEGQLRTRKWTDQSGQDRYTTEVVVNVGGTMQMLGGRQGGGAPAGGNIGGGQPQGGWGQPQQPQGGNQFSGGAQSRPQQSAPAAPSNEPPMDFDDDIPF

B1: dT30 (ssDNA)
DNA: TTTTTTTTTTTTTTTTTTTTTTTTTTTTTT
binding result (SSB): binds
binding result (RPA (RPA70-RPA32-RPA14)): binds

Source: paper PMC4506714
